In paper PMC5122715, “A Novel, Molybdenum-Containing Methionine Sulfoxide Reductase Supports Survival of Haemophilus influenzae in an In vivo Model of Infection” (Frontiers in Microbiology, 2016):

Legend:
Assay in all cases: purified protein
[1] = test system: C[S+]([O-])CCC(N)C(=O)O; settings: 0.2 mM benzyl viologen, 0.3 mM dithionite, 20 mM sodium phosphate pH 6.8, 37°C, concentration of the whole racemic mixture
[2] = test system: C[S+](C)[O-]; settings: 0.2 mM benzyl viologen, 0.3 mM dithionite, 20 mM sodium phosphate pH 6.8, 37°C
[3] = test system: O=C(O)CCCC[C@H]1[C@H]2NC(=O)N[C@H]2C[S@+]1[O-]; settings: 0.2 mM benzyl viologen, 0.3 mM dithionite, 20 mM sodium phosphate pH 6.8, 37°C
[4] = test system: C[N+](C)(C)[O-]; settings: 0.2 mM benzyl viologen, 0.3 mM dithionite, 20 mM sodium phosphate pH 6.8, 37°C

HI rTorZ (TorZ/MtsZ) (Haemophilus influenzae Rd KW20)
Km [1]: 410 ± 80 µM | kcat [1]: 91.7 ± 4.4 s⁻¹ | kcat/Km [1]: 224000 M⁻¹ s⁻¹ | Km [2]: 140 ± 50 µM | kcat [2]: 85.4 ± 9.1 s⁻¹ | kcat/Km [2]: 650000 M⁻¹ s⁻¹ | Km [3]: 1520 ± 280 µM | kcat [3]: 183 ± 10.9 s⁻¹ | kcat/Km [3]: 120000 M⁻¹ s⁻¹ | Km [4]: 6700 ± 2000 µM | kcat [4]: 435 ± 52.1 s⁻¹ | kcat/Km [4]: 64900 M⁻¹ s⁻¹
